We go through two molecules from paper PMC7367873, “Dissecting the sequence determinants for dephosphorylation by the catalytic subunits of phosphatases PP1 and PP2A” (Nature Communications, 2020).

In experiment [1] the test system is GFP-14-3-3β and its binding proteins. In words: GFP-14-3-3β co-IP with LC-MS/MS label-free quantification, untreated versus PP1c-treated. The following applies: GFP-14-3-3β co-IP LC-MS/MS; PP1 vs untreated; student's t-test; label-free quantification, 3 replicates each. On the set-up: species or system human.
In the next experiment the test system is GFP-14-3-3β. In words: GFP-14-3-3β co-IP with LC-MS/MS, untreated GFP-14-3-3β versus GFP control (14-3-3 interactome). Type of experiment: binding, human. The following applies: GFP-14-3-3β co-IP LC-MS/MS; untreated vs GFP; student's t-test; label-free quantification, 3 replicates each.

B1: DSG2 (protein, UniProt Q14126 50-1118, looked up)
Desmoglein-2: AWITAPVALREGEDLSKKNPIAKIHSDLAEERGLKITYKYTGKGITEPPFGIFVFNKDTGELNVTSILDREETPFFLLTGYALDARGNNVEKPLELRIKVLDINDNEPVFTQDVFVGSVEELSAAHTLVMKINATDADEPNTLNSKISYRIVSLEPAYPPVFYLNKDTGEIYTTSVTLDREEHSSYTLTVEARDGNGEVTDKPVKQAQVQIRILDVNDNIPVVENKVLEGMVEENQVNVEVTRIKVFDADEIGSDNWLANFTFASGNEGGYFHIETDAQTNEGIVTLIKEVDYEEMKNLDFSVIVANKAAFHKSIRSKYKPTPIPIKVKVKNVKEGIHFKSSVISIYVSESMDRSSKGQIIGNFQAFDEDTGLPAHARYVKLEDRDNWISVDSVTSEIKLAKLPDFESRYVQNGTYTVKIVAISEDYPRKTITGTVLINVEDINDNCPTLIEPVQTICHDAEYVNVTAEDLDGHPNSGPFSFSVIDKPPGMAEKWKIARQESTSVLLQQSEKKLGRSEIQFLISDNQGFSCPEKQVLTLTVCECLHGSGCREAQHDSYVGLGPAAIALMILAFLLLLLVPLLLLMCHCGKGAKGFTPIPGTIEMLHPWNNEGAPPEDKVVPSFLPVDQGGSLVGRNGVGGMAKEATMKGSSSASIVKGQHEMSEMDGRWEEHRSLLSGRATQFTGATGAIMTTETTKTARATGASRDMAGAQAAAVALNEEFLRNYFTDKAASYTEEDENHTAKDCLLVYSQEETESLNASIGCCSFIEGELDDRFLDDLGLKFKTLAEVCLGQKIDINKEIEQRQKPATETSMNTASHSLCEQTMVNSENTYSSGSSFPVPKSLQEANAEKVTQEIVTERSVSSRQAQKVATPLPDPMASRNVIATETSYVTGSTMPPTTVILGPSQPQSLIVTERVYAPASTLVDQPYANEGTVVVTERVIQPHGGGSNPLEGTQHLQDVPYVMVRERESFLAPSSGVQPTLAMPNIAVGQNVTVTERVLAPASTLQSSYQIPTENSMTARNTTVSGAGVPGPLPDFGLEESGHSNSTITTSSTRVTKHSTVQHSYS
As to B1, the “Difference (log2), PP1 vs untreated” value in experiment [1] is -0.1595 log2. For the same molecule, the “Difference (log2), untreated vs GFP” value in the experiment on GFP-14-3-3β is -0.9434 log2.

B2: SMC3 (protein, UniProt Q9UQE7 1-1217, looked up)
Structural maintenance of …: MYIKQVIIQGFRSYRDQTIVDPFSSKHNVIVGRNGSGKSNFFYAIQFVLSDEFSHLRPEQRLALLHEGTGPRVISAFVEIIFDNSDNRLPIDKEEVSLRRVIGAKKDQYFLDKKMVTKNDVMNLLESAGFSRSNPYYIVKQGKINQMATAPDSQRLKLLREVAGTRVYDERKEESISLMKETEGKREKINELLKYIEERLHTLEEEKEELAQYQKWDKMRRALEYTIYNQELNETRAKLDELSAKRETSGEKSRQLRDAQQDARDKMEDIERQVRELKTKISAMKEEKEQLSAERQEQIKQRTKLELKAKDLQDELAGNSEQRKRLLKERQKLLEKIEEKQKELAETEPKFNSVKEKEERGIARLAQATQERTDLYAKQGRGSQFTSKEERDKWIKKELKSLDQAINDKKRQIAAIHKDLEDTEANKEKNLEQYNKLDQDLNEVKARVEELDRKYYEVKNKKDELQSERNYLWREENAEQQALAAKREDLEKKQQLLRAATGKAILNGIDSINKVLDHFRRKGINQHVQNGYHGIVMNNFECEPAFYTCVEVTAGNRLFYHIVDSDEVSTKILMEFNKMNLPGEVTFLPLNKLDVRDTAYPETNDAIPMISKLRYNPRFDKAFKHVFGKTLICRSMEVSTQLARAFTMDCITLEGDQVSHRGALTGGYYDTRKSRLELQKDVRKAEEELGELEAKLNENLRRNIERINNEIDQLMNQMQQIETQQRKFKASRDSILSEMKMLKEKRQQSEKTFMPKQRSLQSLEASLHAMESTRESLKAELGTDLLSQLSLEDQKRVDALNDEIRQLQQENRQLLNERIKLEGIITRVETYLNENLRKRLDQVEQELNELRETEGGTVLTATTSELEAINKRVKDTMARSEDLDNSIDKTEAGIKELQKSMERWKNMEKEHMDAINHDTKELEKMTNRQGMLLKKKEECMKKIRELGSLPQEAFEKYQTLSLKQLFRKLEQCNTELKKYSHVNKKALDQFVNFSEQKEKLIKRQEELDRGYKSIMELMNVLELRKYEAIQLTFKQVSKNFSEVFQKLVPGGKATLVMKKGDVEGSQSQDEGEGSGESERGSGSQSSVPSVDQFTGVGIRVSFTGKQGEMREMQQLSGGQKSLVALALIFAIQKCDPAPFYLFDEIDQALDAQHRKAVSDMIMELAVHAQFITTTFRPELLESADKFYGVKFRNKVSHIDVITAEMAKDFVEDDTTHG
For the molecule B2, in experiment [1], the “Difference (log2), PP1 vs untreated” value is -0.1648 log2. The “Difference (log2), untreated vs GFP” value in the experiment with GFP-14-3-3β came out at 0.1297 log2.
